Data as given in PMC5339848.

Legend:
[1] = target: AP1M1 (mu subunit of the AP1 complex) (UniProt Q9BXS5); assay: competitive binding with synthetic peptides, in vitro; settings: reference: unphosphorylated peptide; sites Y8
[2] = target: AP2M1 (mu subunit of the AP2 complex) (UniProt Q96CW1); assay: as above; settings: reference: unphosphorylated peptide; sites Y8

mATG9 1-18 (from UniProt Q7Z3C6) pY8 peptide
binding against the reference [1]: stronger | binding against the reference [2]: stronger
